Experimental data: the supplement of paper PMC9170038

Test system: MS2 coat protein
Test: apparent KD of MS2 coat protein; designed switch direction (-1 OFF switch, 1 ON switch): 1; higher = weaker reporter binding
In short: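 Designed RNA switches were transcribed on Illumina chips by stalled E. coli RNA polymerase and titrated with SNAP-549-labelled MS2 coat protein from 0.7 or 1.5 nM, doubling to 3 µM. Step length ran from 0.8–1.5 h at the lowest concentration to 10–20 min at the highest. The apparent KD is the median over clusters for each design, from curve-fitted normalised cluster fluorescence.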

[1] = input ligand: microRNA oligo, concentration not stated
[2] = Eterna round: R95, input ligand: FMN 200 uM
[3] = Eterna round: R95, input ligand: microRNA oligo, concentration not stated
[4] = Eterna round: R95, input ligand: none

“GGUGCAAUAAACGCCUACAUGAGGAUCACCCAUGUAUGUAGGCAGGAUAUCGUAUGCAAAGCAUACGAGAAGGGCUAUAGUACC [Mat - Same State NG 3 - JL Mod - D45] (Eterna round: R96, puzzle: Same State NG 3)” was tested, and the “apparent KD of MS2 coat protein” value (input ligand: FMN 200 uM) was 57.1 nM, the “apparent KD of MS2 coat protein” value [1] was 124 nM and the “apparent KD of MS2 coat protein” value (input ligand: none) was 146 nM.
For “GGUGCAAUAAACGCCUACAUGAGGAUCACCCAUGUAUGUAGGCAGGAUAUCGUAUGCAAAGCAUACGAGAAGGGCUGUAGUACC [Mat - Same State NG 3 - JL Mod - D42] (Eterna round: R96, puzzle: Same State NG 3)”, the “apparent KD of MS2 coat protein” value (input ligand: FMN 200 uM) was 53.7 nM, the “apparent KD of MS2 coat protein” value [1] was 116 nM and the “apparent KD of MS2 coat protein” value (input ligand: none) was 118 nM.
In the case of “GGUGCAAUUAACGCCUACAUGAGGAUCACCCAUGUAUGUAGGCAGGAUAUCGUUUGCUUUGCAAACGAGAAGGGCUGUAGUACC [JL SSNG3 1.14] (Eterna round: R96, puzzle: Same State NG 3)”, the “apparent KD of MS2 coat protein” value (input ligand: FMN 200 uM) is reported as 35.6 nM, the “apparent KD of MS2 coat protein” value [1] is reported as 89.3 nM and the “apparent KD of MS2 coat protein” value (input ligand: none) is reported as 84.5 nM.
“GGUGGGUUGCUGCCGGCACAUGAGGAUCACCCAUGUUUUGGGAAGGAUAUGGUACCUUUUUGGUGCCAGAAGGUCCCGUUGGUG [salish99_SSNG3_r04_712 large U pivot] (Eterna round: R96, puzzle: Same State NG 3)” was tested, and the “apparent KD of MS2 coat protein” value [1] was 350 nM.
For “GGUUUAGUCAGGUACAGUUGCACCUGAAAACAUGAGGAUCACCCAUGUUUGGGACAAGCUUUGCUCCUCGUCUUGCC [Ralausen] (puzzle: Sensor for hsa-mir-208a)”, the “apparent KD of MS2 coat protein” value [2] was 101 nM, the “apparent KD of MS2 coat protein” value [3] was 77.6 nM and the “apparent KD of MS2 coat protein” value [4] was 152 nM.
With “GGUUUAGUCGAGUACCGUUCCACUCGAAAACAUGAGGAUCACCCAUGUUUGGGACAAGCUUUGCUCCUCGUCUUUCC [Inardiza] (puzzle: Sensor for hsa-mir-208a)” the “apparent KD of MS2 coat protein” value [2] was 29.6 nM, the “apparent KD of MS2 coat protein” value [3] was 64.8 nM and the “apparent KD of MS2 coat protein” value [4] was 36.6 nM.
For “GUAAAGAAUUAAGGAUAUUGAAUACAUAUGUUUAACAUGAGGAUCACCCAUGUGGGUUGCGGUAUCGAGAAGGUAAAAUAAAAG [Mat - Same State NG 2 - JL mod - D7] (Eterna round: R96, puzzle: Same State NG 2)”, the “apparent KD of MS2 coat protein” value (input ligand: FMN 200 uM) was 137 nM, the “apparent KD of MS2 coat protein” value [1] was 105 nM and the “apparent KD of MS2 coat protein” value (input ligand: none) was 124 nM.
“GUAAAGAAUUAAGGAUAUUGAUUACAUAUGUUUAACAUGAGGAUCACCCAUGUGGGUUGCGGUAUCGAGAAGGUAAAAUAAUAG [Mat - same State NG 2 - JL mod - D86] (Eterna round: R96, puzzle: Same State NG 2)” was tested, and the “apparent KD of MS2 coat protein” value (input ligand: FMN 200 uM) was 190 nM, the “apparent KD of MS2 coat protein” value [1] was 131 nM and the “apparent KD of MS2 coat protein” value (input ligand: none) was 174 nM.
With “GUAAGUUUGAUGCUCGUCUCUCCGUACAAACAUGAGGAUCACCCAUGUGGUCGGGAAGUAGCCCGGCCAGUAUGGCC [Rerire] (puzzle: Sensor for hsa-mir-208a)” the “apparent KD of MS2 coat protein” value [2] was 24.8 nM, the “apparent KD of MS2 coat protein” value [3] was 21.4 nM and the “apparent KD of MS2 coat protein” value [4] was 26.8 nM.
With “GUAAUACAUGAGGAUCACCCAUGUCAAUGUAGUCGAGGAUAUGGGUAGCUAUGAGGCGUUCUAGAAGGCGACGAGC [Same State 1 - Mod of Vinnie Teenbexe v.3] (puzzle: Same State 1)” the “apparent KD of MS2 coat protein” value [2] was 273 nM, the “apparent KD of MS2 coat protein” value [3] was 151 nM and the “apparent KD of MS2 coat protein” value [4] was 52.2 nM.
In the case of “GUAAUCGUUAUAGGAUAUCAUGAGGAUUACCCAUGAGAAGGGUGAUUCCGAUCCAUAUUCAGAAAAUGAAUGUGGAUAGAUUGC [Omei NG1 A v1] (Eterna round: R96, puzzle: Same State NG 1)”, the “apparent KD of MS2 coat protein” value (input ligand: FMN 200 uM) is reported as 123 nM, the “apparent KD of MS2 coat protein” value [1] is reported as 117 nM and the “apparent KD of MS2 coat protein” value (input ligand: none) is reported as 260 nM.
For “GUACAAAUCAUAGGAUAUGGGCGGGAAUGCCGUCCAGAAGGAUGAACAUGAGGAUCACCCAUGUCCGGCCACAAAUACGCGGCC [Bientela] (Eterna round: R96, puzzle: Same State NG 1)”, the “apparent KD of MS2 coat protein” value (input ligand: FMN 200 uM) was 72.3 nM, the “apparent KD of MS2 coat protein” value [1] was 104 nM and the “apparent KD of MS2 coat protein” value (input ligand: none) was 161 nM.
For “GUACAGAUUAUAGGAUAUCACGUCGAAUAGACGUGAGAAGGAUAAUCACACAUGAAUAUUAAUACAUGAGGAUCACCCAUGUAC [SSNG1/17-A1] (Eterna round: R96, puzzle: Same State NG 1)”, the “apparent KD of MS2 coat protein” value (input ligand: FMN 200 uM) was 16.7 nM, the “apparent KD of MS2 coat protein” value [1] was 12.9 nM and the “apparent KD of MS2 coat protein” value (input ligand: none) was 17.1 nM.
In the case of “GUACAUAUCAGAGGAUAUCACGUCGAUUAGACGUGAGAAGGCUGAUCACACAUGAAUAUUAAUACAUGAGGAUCACCCAUGUAC [SSNG1/13-A2] (Eterna round: R96, puzzle: Same State NG 1)”, the “apparent KD of MS2 coat protein” value (input ligand: FMN 200 uM) is reported as 16.9 nM, the “apparent KD of MS2 coat protein” value [1] is reported as 28.5 nM and the “apparent KD of MS2 coat protein” value (input ligand: none) is reported as 37.2 nM.
For “GUACUACAUGAGGAUCACCCAUGUUACCUUCACGGAGGAUAUAGGAAAUGAGGUGAGAUGCUAGAAGGCCGAGGAA [Candy Rainbow 4] (puzzle: Same State 1)”, the “apparent KD of MS2 coat protein” value [2] was 102 nM, the “apparent KD of MS2 coat protein” value [3] was 78.3 nM and the “apparent KD of MS2 coat protein” value [4] was 95.9 nM.
For “GUAGAAUAACUAGAGGAUAUCCGAGUGGUAACAUGAGGAUCACCCAUGUGAUGAAAGGAACAUGAGGAGAAGGCUAGAAGUAAUG [Mat - Same State 2 - Mod of JL - D81] (puzzle: Same State 2)”, the “apparent KD of MS2 coat protein” value [2] was 17.5 nM, the “apparent KD of MS2 coat protein” value [3] was 61.1 nM and the “apparent KD of MS2 coat protein” value [4] was 48.1 nM.
For “GUAGAUAUAACGCAGGAUAUUCAAUGAGAGACAUGAGGAUCACCCAUGUGAGAGUGAGAUGAUAGGAAGAAGGGUGAGAGAGAUG [Altered State 2-8 - Jieux - Same State 2] (puzzle: Same State 2)”, the “apparent KD of MS2 coat protein” value [2] was 107 nM, the “apparent KD of MS2 coat protein” value [3] was 124 nM and the “apparent KD of MS2 coat protein” value [4] was 122 nM.
With “GUAGCAUACCGAGGAUAUUCAACAUGAGGAUCACCCAUGUGUUUGUUAUAGGCCAAAAGGCCUUGGGAGAAGGCGGAAUGCUAC [Xeonanis - 20 Mod16] (Eterna round: R96, puzzle: Same State NG 2)” the “apparent KD of MS2 coat protein” value (input ligand: FMN 200 uM) was 9.03 nM, the “apparent KD of MS2 coat protein” value [1] was 9.65 nM and the “apparent KD of MS2 coat protein” value (input ligand: none) was 12.9 nM.
With “GUAGCAUACCGAGGAUAUUCAUAUUAACAUGAGGAUCACCCAUGUAUUUAGGCCAAAAGGCCUUGGGAGAAGGCGGAAUGCUAC [Xeonanis - 20 Mod7] (Eterna round: R96, puzzle: Same State NG 2)” the “apparent KD of MS2 coat protein” value (input ligand: FMN 200 uM) was 17.5 nM, the “apparent KD of MS2 coat protein” value [1] was 22.3 nM and the “apparent KD of MS2 coat protein” value (input ligand: none) was 29.4 nM.
With “GUAGCAUACCGAGGAUAUUCAUAUUACAUGAGGAUCACCCAUGUUAUAGGCCGAUUACGGCCUUGGGAGAAGGCGGAAUGCUAC [Xeonanis - 20 Mod24] (Eterna round: R96, puzzle: Same State NG 2)” the “apparent KD of MS2 coat protein” value (input ligand: FMN 200 uM) was 17.4 nM, the “apparent KD of MS2 coat protein” value [1] was 38.1 nM and the “apparent KD of MS2 coat protein” value (input ligand: none) was 37.6 nM.
“GUAGCAUACCGAGGAUAUUCAUAUUAUAAACAUGAGGAUCACCCAUGUGGCCGAUUACGGCCUUGGGAGAAGGCGGAAUGCUAC [Xeonanis - 20 Mod17] (Eterna round: R96, puzzle: Same State NG 2)” was tested, and the “apparent KD of MS2 coat protein” value (input ligand: FMN 200 uM) was 44.6 nM, the “apparent KD of MS2 coat protein” value [1] was 641 nM and the “apparent KD of MS2 coat protein” value (input ligand: none) was 909 nM.
In the case of “GUAGCAUACCGAGGAUAUUCAUAUUAUAAACAUGAGGAUCACCCAUGUGGUCGAUUACGACCUUGGGAGAAGGCGGAAUGCUAC [Xeonanis - 20 Mod36] (Eterna round: R96, puzzle: Same State NG 2)”, the “apparent KD of MS2 coat protein” value (input ligand: FMN 200 uM) is reported as 46.4 nM, the “apparent KD of MS2 coat protein” value [1] is reported as 462 nM and the “apparent KD of MS2 coat protein” value (input ligand: none) is reported as 725 nM.
